From patent US20180016354A1 (Merck KGaA, published 2018) come the findings set out here.

For test [1], the target named is T1, EGFR (on EGFR-expressing A431 cells) (UniProt P00533 25-1210, limits assumed). Briefly: cell-based or functional assay.
The target in test [2] is CD3 (on activated primary T cells) (UniProt P07766 23-207). Briefly: cell-based or functional assay.
The target of test [3] is T1, EGFR (on EGFR-expressing A431 cells). Briefly: flow cytometry on A431 cells.
The target of test [4] is T2, CD16a receptor (FcγIIIa) (UniProt P08637 17-254, limits assumed).
T2 construct: whole, on cells
T2 sequence (P08637 17-254 limits assumed): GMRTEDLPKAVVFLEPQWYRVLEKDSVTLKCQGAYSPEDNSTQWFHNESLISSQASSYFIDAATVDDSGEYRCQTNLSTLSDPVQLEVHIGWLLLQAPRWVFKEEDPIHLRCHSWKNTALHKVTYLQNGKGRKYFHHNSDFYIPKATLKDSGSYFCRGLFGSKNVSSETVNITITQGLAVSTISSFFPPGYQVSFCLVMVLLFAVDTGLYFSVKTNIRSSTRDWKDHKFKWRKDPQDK
Nature of the test: CD16a HTRF cellular binding assay, competition with labeled human IgG. Here is the method: (§1) FIG. 14: Binding of antibodies to CD16a receptor. Binding was measured using CD16a HTRF cellular binding assay (CisBio). Measurement was performed in duplicates.

Test [5] concerns the target T2, CD16a receptor (FcγIIIa). Nature of the test: cell-based or functional assay.
Test [6] has as its target T2, CD16a receptor (FcγIIIa). Nature of the test: CD16a HTRF cellular binding assay (CisBio), competition with labeled human IgG. Here is the method:
as §1
Background: Time-resolved FRET reads energy transfer from a long-lived donor to a nearby acceptor.

B1: domain-exchanged heterodimeric bispecific antibody 1, BsAb1 (anti-CD3× anti-EGFR CH3-KiH) (bispecific antibody, human IgG1, kappa)
heavy 1: QVQLVQSGAEVKKPGASVKVSCKASGYTFTSHWMHWVRQAPGQGLEWIGEFNPSNGRTNYNEKFKSKATMTVDTSTNTAYMELSSLRSEDTAVYYCASRDYDYDGRYFDYWGQGTLVTVSSASTKGEPQVYTLPPSRDELTKNQVSLYCLVKGFYPSDIAVEWESNGQPENNYKTTPPVLDSDGSFFLYSKLTVDKSRWQQGNVFSCSVMHEALHNHYTQKSLSLSKSCDKTHTCPPCPAPELLGGPSVFLFPPKPKDTLMISRTPEVTCVVVDVSHEDPEVKFNWYVDGVEVHNAKTKPREEQYNSTYRVVSVLTVLHQDWLNGKEYKCKVSNKALPAPIEKTISKAKGQPFRPEVHLLPPSREEMTKNQVSLTCLARGFYPKDIAVEWESNGQPENNYKTTPSRQEPSQGTTTFAVTSKLTVDKSRWQQGNVFSCSVMHEALHNHYTQKTISLSPGK
heavy 2: QVQLVQSGGGVVQPGRSLRLSCKASGYTFTRYTMHWVRQAPGKGLEWIGYINPSRGYTNYNQKVKDRFTISRDNSKNTAFLQMDSLRPEDTGVYFCARYYDDHYCLDYWGQGTPVTVSSASTKGPSVFPLAPSSKSTSGGTAALGCLVKDYFPEPVTVSWNSGALTSGVHTFPAVLQSSGLYSLSSVVTVPSSSLGTQTYICNVNHKPSNTKVDKKVEPKSCDKTHTCPPCPAPELLGGPSVFLFPPKPKDTLMISRTPEVTCVVVDVSHEDPEVKFNWYVDGVEVHNAKTKPREEQYNSTYRVVSVLTVLHQDWLNGKEYKCKVSNKALPAPIEKTISKAKGQPREPQVYTLPPPSEELALNELVTLTCLVKGFYPSDIAVEWLQGSQELPREKYLTWAPVLDSDGSFFLYSILRVAAEDWKKGDTFSCSVMHEALHNHYTQKSLDRSPGK
light 1: DIQMTQSPSSLSASVGDRVTITCSASSSVTYMYWYQQKPGKAPKLLIYDTSNLASGVPSRFSGSGSGTDYTFTISSLQPEDIATYYCQQWSSHIFTFGQGTKVEIKRTVAEPQVYTLPPSRDELTKNQVSLTCLVKGFYPSDIAVEWESNGQPENNYKTTPPVLDSDGSFFLTSKLTVDKSRWQQGNVFSCSVMHEALHNHYTQKSLSLSGEC
light 2: DIQMTQSPSSLSASVGDRVTITCSASSSVSYMNWYQQTPGKAPKRWIYDTSKLASGVPSRFSGSGSGTDYTFTISSLQPEDIATYYCQQWSSNPFTFGQGTKLQITRTVAAPSVFIFPPSDEQLKSGTASVVCLLNNFYPREAKVQWKVDNALQSGNSQESVTEQDSKDSTYSLSSTLTLSKADYEKHKVYACEVTHQGLSSPVTKSFNRGEC
notes: hu425 (Matuzumab) Fv in the CH3 domain-exchanged Fab arm, OKT3 Fv in the native Fab arm; SEED AG/GA Fc; also called domain-exchanged heterodimeric antibody 1; domain-exchanged bispecific antibody 1
A word on the EC50: it is the concentration giving half of the maximal effect. Higher therefore signals weaker potency. Take B1: the “EC50 of redirected lysis of A431 cells by activated T cells (LDH release)” value in test [1] and in test [2] was 0.1 to 0.3 nM throughout. The molecule further returned an EC50 in test [3] of roughly 7 nM.

B2: domain-exchanged bispecific antibody 2, BsAb2 (anti-CD16× anti-EGFR CH3-KiH) (bispecific antibody, human IgG1, kappa)
heavy 1: QVQLVQSGAEVKKPGASVKVSCKASGYTFTSHWMHWVRQAPGQGLEWIGEFNPSNGRTNYNEKFKSKATMTVDTSTNTAYMELSSLRSEDTAVYYCASRDYDYDGRYFDYWGQGTLVTVSSASTKGEPQVYTLPPSRDELTKNQVSLYCLVKGFYPSDIAVEWESNGQPENNYKTTPPVLDSDGSFFLYSKLTVDKSRWQQGNVFSCSVMHEALHNHYTQKSLSLSKSCDKTHTCPPCPAPELLGGPSVFLFPPKPKDTLMISRTPEVTCVVVDVSHEDPEVKFNWYVDGVEVHNAKTKPREEQYNSTYRVVSVLTVLHQDWLNGKEYKCKVSNKALPAPIEKTISKAKGQPFRPEVHLLPPSREEMTKNQVSLTCLARGFYPKDIAVEWESNGQPENNYKTTPSRQEPSQGTTTFAVTSKLTVDKSRWQQGNVFSCSVMHEALHNHYTQKTISLSPGK
heavy 2: not shown
light 1: DIQMTQSPSSLSASVGDRVTITCSASSSVTYMYWYQQKPGKAPKLLIYDTSNLASGVPSRFSGSGSGTDYTFTISSLQPEDIATYYCQQWSSHIFTFGQGTKVEIKRTVAEPQVYTLPPSRDELTKNQVSLTCLVKGFYPSDIAVEWESNGQPENNYKTTPPVLDSDGSFFLTSKLTVDKSRWQQGNVFSCSVMHEALHNHYTQKSLSLSGEC
light 2: not shown
notes: hu425 Fv in the domain-exchanged Fab arm, murine 3G8 (anti-CD16) Fv in the native Fab arm; also called effector positive BsAb2 variant
Usually IC50 stands for the concentration at which inhibition is half-maximal. Lower therefore signals greater potency. For the molecule B2, in the test with CD16a receptor (FcγIIIa) [4], the IC50 is roughly 0.3 nM. For the same molecule, the “EC50 of lysis of A431 cells by redirected NK cells (LDH release)” value (with CD16a receptor (FcγIIIa) [5]; in test [1]) was 10 pM each time. In addition, the “lysis of A431 cells by redirected NK cells (LDH release)” value (in the test with CD16a receptor (FcγIIIa) [5]; in test [1]) was no more than 50% throughout.

B3: One-armed Effector Negative (EN) domain-exchanged anti-EGFR antibody (antibody)
heavy: QVQLVQSGAEVKKPGASVKVSCKASGYTFTSHWMHWVRQAPGQGLEWIGEFNPSNGRTNYNEKFKSKATMTVDTSTNTAYMELSSLRSEDTAVYYCASRDYDYDGRYFDYWGQGTLVTVSSASTKGEPQVYTLPPSRDELTKNQVSLYCLVKGFYPSDIAVEWESNGQPENNYKTTPPVLDSDGSFFLYSKLTVDKSRWQQGNVFSCSVMHEALHNHYTQKSLSLSKSCDKTHTCPPCPAPPVAGPSVFLFPPKPKDTLMISRTPEVTCVVVDVSHEDPEVQFNWYVDGVEVHNAKTKPREEQAQSTFRVVSVLTVVHQDWLNGKEYKCKVSNKGLPAPIEKTISKTKGQPFRPEVHLLPPSREEMTKNQVSLTCLARGFYPKDIAVEWESNGQPENNYKTTPSRQEPSQGTTTFAVTSKLTVDKSRWQQGNVFSCSVMHEALHNHYTQKTISLSPGK
chain: EPKSSDKTHTCPPCPAPPVAGPSVFLFPPKPKDTLMISRTPEVTCVVVDVSHEDPEVQFNWYVDGVEVHNAKTKPREEQAQSTFRVVSVLTVVHQDWLNGKEYKCKVSNKGLPAPIEKTISKTKGQPREPQVYTLPPPSEELALNELVTLTCLVKGFYPSDIAVEWLQGSQELPREKYLTWAPVLDSDGSFFLYSILRVAAEDWKKGDTFSCSVMHEALHNHYTQKSLDRSPGK
light: DIQMTQSPSSLSASVGDRVTITCSASSSVTYMYWYQQKPGKAPKLLIYDTSNLASGVPSRFSGSGSGTDYTFTISSLQPEDIATYYCQQWSSHIFTFGQGTKVEIKRTVAEPQVYTLPPSRDELTKNQVSLTCLVKGFYPSDIAVEWESNGQPENNYKTTPPVLDSDGSFFLTSKLTVDKSRWQQGNVFSCSVMHEALHNHYTQKSLSLSGEC
notes: One Fab arm only; effector negative Fc (modified IgG2 CH2 F296A, N297Q); also called one-armed domain-exchanged EN anti-EGFR antibody; one-armed effector negative anti-EGFR antibody
For B3, the binding result in the test with CD16a receptor (FcγIIIa) [6] is listed as “no binding”.
